The target of assay [1] is SRP (Ffh bound to 4.5 S RNA) with DACM-labeled Ffh Cys235 (UniProt P0AGD7). In words: FRET or BRET.
Assay [2] deals with acrylodan-labeled FtsY Cys356 (UniProt P10121). In words: other fluorescence titration.

pKd: −log10 of the molar value. “And” between values parts separate entries of the source, which are not always exact repeats. Equal entries are not always repeated. A value given as a limit tells only on which side of the number the result lay.

As a reminder, the pKd is −log10 of the Kd, conventionally taken in molar units.

In assay [1], “BODIPY-FL-labeled FtsY Cys487 (full-length FtsY) (from UniProt P10121 1-497) (receptor)” had a negative-log Kd (pKd) of 6.79 and a fold destabilisation of the early complex by SecYEG (against no SecYEG) of over 15 fold. Take “Signal recognition particle (SRP; Ffh bound to 4.5 S RNA) (from UniProt P0AGD7 1-453) (complex)”: the fold stabilisation of the activated complex by SecYEG (against no SecYEG) in assay [2] was 2 fold and 4 fold.

The values are drawn from article PMC3575545.
